The text below walks through data of patent US20160176924A1, “MODIFIED PEPTIDES AS POTENT INHIBITORS OF THE PSD-95/NMDA RECEPTOR INTERACTION” (priority 2008, published 2016).

The target of experiment [1] is T1, HIS-PDZ2 protein (PSD-95 PDZ2, residues 155-249, with tag …) (human), P78352.
T1 chain: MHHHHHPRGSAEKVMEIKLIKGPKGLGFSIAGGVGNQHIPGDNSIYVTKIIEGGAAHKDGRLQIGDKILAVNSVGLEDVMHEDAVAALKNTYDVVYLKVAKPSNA
Briefly: FP competition, fluorescent NR2B probe; truncation series of NR2B peptide (1).

Experiment [2] addresses T2, HIS-PDZ1 protein (PSD-95 PDZ1, residues 61-151, with tag …) (human), P78352. The description is as above.
The target of experiment [3] is T3, HIS-PDZ1-2 protein (PSD-95 PDZ1-2 tandem, residues 61-249, with tag …) (human), P78352. Briefly: FP competition, fluorescent NR2B probe.
Experiment [4] deals with T1, HIS-PDZ2 protein (PSD-95 PDZ2, residues …). Put plainly: FP competition, fluorescent NR2B probe.
In experiment [5] the target is T2, HIS-PDZ1 protein (PSD-95 PDZ1, residues …). Briefly: FP competition, fluorescent NR2B probe.
The target in experiment [6] is T3, HIS-PDZ1-2 protein (PSD-95 PDZ1-2 …). Briefly: ITC; monomeric IETAV, no linker. On the technique in general: Isothermal titration calorimetry measures the heat released or taken up as one component is titrated into another.

A word on the Ki: it is the dissociation constant of the complex between target and ligand, obtained from inhibition or displacement. Lower therefore signals tighter binding. One may read the Kd as the free concentration of one partner at which half of the binding sites on the other are occupied at equilibrium, for simple one-to-one binding. A lower Kd goes with higher affinity.

B1: ESDV (8) (peptide)
peptide: ESDV
modifications: not checked
With B1, the fold increase in Ki stood at 6.8 fold in experiment [1] and 3.1 fold in experiment [2]. Moreover, the inhibition constant (Ki) in experiment [3] worked out at 28 µM; in experiment [4], 28 µM; in experiment [5], 56 µM.

B2: IETAV (82) (peptide)
peptide: IETAV
modifications: not checked
Regarding B2, the figures for the inhibition constant Ki in experiment [3] and in experiment [4] were 2.5 µM and 1.7 µM, respectively. For the same molecule, the Kd in experiment [6] is 1.9 µM.
